T1: human TIGIT (Homo sapiens, UniProt Q495A1)
T1 sequence (Q495A1 22-244): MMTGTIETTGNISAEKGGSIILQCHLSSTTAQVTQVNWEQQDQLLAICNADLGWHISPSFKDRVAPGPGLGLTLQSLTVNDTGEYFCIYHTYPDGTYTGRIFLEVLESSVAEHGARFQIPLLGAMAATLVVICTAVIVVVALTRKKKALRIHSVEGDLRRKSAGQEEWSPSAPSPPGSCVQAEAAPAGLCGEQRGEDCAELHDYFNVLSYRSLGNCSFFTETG


Target: T1, human TIGIT
Assay: binding of anti-TIGIT antibodies to human TIGIT
Conditions: hamster-anti-mouse anti-TIGIT antibodies; qualitative statement, no method given

| specific binding to human TIGIT | Molecule |
| --- | --- |
| specifically bound | 1F4: hamster-anti-mouse anti-TIGIT antibody; light chain SEQ ID NO:14, heavy chain SEQ ID NO:16 (antibody, V domains shown) VH: EVQLQQSGPELVKPGTSMKISCKASGYSFTGHLMNWVKQSHGKNLEWIGLIIPYNGGTSYNQKFKGKATLTVDKSSSTAYMELLSLTSDDSAVYFCSRGLRGFYAMDYWGQGTSVTVSS VL: DVVLTQTPLSLSVSFGDQVSISCRSSQSLVNSYGNTFLSWYLHKPGQSPQLLIFGISNRFSGVPDRFSGSGSGTDFTLKISTIKPEDLGMYYCLQGTHQPPTFGPGTKLEVK |
| specifically bound | 10A7: hamster-anti-mouse anti-TIGIT antibody; light chain SEQ ID NO:13, heavy chain SEQ ID NO:15 (antibody, V domains shown) VH: EVQLVESGGGLTQPGKSLKLSCEASGFTFSSFTMHWVRQSPGKGLEWVAFIRSGSGIVFYADAVRGRFTISRDNAKNLLFLQMNDLKSEDTAMYYCARRPLGHNTFDSWGQGTLVTVSS VL: DIVMTQSPSSLAVSPGEKVTMTCKSSQSLYYSGVKENLLAWYQQKPGQSPKLLIYYASIRFTGVPDRFTGSGSGTDYTLTITSVQAEDMGQYFCQQGINNPLTFGDGTKLEIKR |

Source: patent US20220331426A1, “METHODS OF TREATING CANCER USING TIGIT INHIBITORS AND ANTI-CANCER AGENTS” (Genentech, Inc., priority 2014, published 2022)
